B1: Bam HI: commercial enzyme from New England Biolabs, sold as RNase-free (protein, UniProt P23940 1-213, looked up)
Type II restriction enzyme …: MEVEKEFITDEAKELLSKDKLIQQAYNEVKTSICSPIWPATSKTFTINNTEKNCNGVVPIKELCYTLLEDTYNWYREKPLDILKLEKKKGGPIDVYKEFIENSELKRVGMEFETGNISSAHRSMNKLLLGLKHGEIDLAIILMPIKQLAYYLTDRVTNFEELEPYFELTEGQPFIFIGFNAEAYNSNVPLIPKGSDGMSKRSIKKWKDKVENK
B2: RNase T1: commercial enzyme reagent from Ambion, tested for RNase activity (protein, UniProt P00651 27-130, looked up)
Guanyl-specific ribonuclease …: ACDYTCGSNCYSSSDVSTAQAAGYQLHEDGETVGSNSYPHKYNNYEGFDFSVSSPYYEWPILSSGDVYSGGSPGADRVVFNENNQLAGVITHTGASGNNFVECT
B3: RNase 1: commercial enzyme reagent from Ambion, tested for RNase activity (protein, UniProt P21338 24-268, looked up)
Ribonuclease I: LALQAKQYGDFDRYVLALSWQTGFCQSQHDRNRNERDECRLQTETTNKADFLTVHGLWPGLPKSVAARGVDERRWMRFGCATRPIPNLPEARASRMCSSPETGLSLETAAKLSEVMPGAGGRSCLERYEYAKHGACFGFDPDAYFGTMVRLNQEIKESEAGKFLADNYGKTVSRRDFDAAFAKSWGKENVKAVKLTCQGNPAYLTEIQISIKADAINAPLSANSFLPQPHPGNCGKTFVIDKAGY
B4: RNase A: commercial enzyme reagent from Ambion, tested for RNase activity (protein, UniProt P61823 27-150, looked up)
Ribonuclease pancreatic: KETAAAKFERQHMDSSTSAASSSNYCNQMMKSRNLTKDRCKPVNTFVHESLADVQAVCSQKNVACKNGQTNCYQSYSTMSITDCRETGSSKYPNCAYKTTQANKHIIVACEGNPYVPVHFDASV
B5: Proteinase K: commercial enzyme reagent from Ambion, sold as RNase-free (protein, UniProt P06873 106-384, looked up)
Proteinase K: AAQTNAPWGLARISSTSPGTSTYYYDESAGQGSCVYVIDTGIEASHPEFEGRAQMVKTYYYSSRDGNGHGTHCAGTVGSRTYGVAKKTQLFGVKVLDDNGSGQYSTIIAGMDFVASDKNNRNCPKGVVASLSLGGGYSSSVNSAAARLQSSGVMVAVAAGNNNADARNYSPASEPSVCTVGASDRYDRRSSFSNYGSVLDIFGPGTSILSTWIGGSTRSISGTSMATPHVAGLAAYLMTLGKTTAASACRYIADTANKGDLSNIPFGTVNLLAYNNYQA

Tested on: Substrate oligonucleotide SEQ ID NO:30
Experiment: RNase testing of commercially obtained reagents, visual detection
Format: biochemical
Design: key: +++ = maximum intensity; ++ = moderate intensity; + = faint but above background; − = negative (identical to background)
Details: reagent diluted 1:10 with Assay Buffer, 50 pmoles Substrate SEQ ID NO:30, 60 minutes at 37° C., UV
Description: Enzymes were obtained from New England Biolabs (NEB) or Ambion as indicated. Test sample (10 ul) was mixed with 1× buffer (90 ul) for a final volume of 100 ul with 50 pmoles of Substrate SEQ ID NO:30 in 0.5 ml RNase-free microtubes. Assay Mixes were incubated 60 minutes at 37° C. and visually examined under UV excitation for fluorescence emission. After scoring for results, 1 ul (1 ug) of RNase A was added to each tube. The Assay was incubated an additional 5 minutes at 37° C. and re-scored. The addition of RNase A represents a control for the absence of an Assay inhibitor and validates negative results. The “plus RNase A” control was omitted whenever the primary assay was already positive.
Table 9: RNase testing of commercially available reagents. A series of commercially available reagents were diluted 1:10 with Assay Buffer to a final volume of 100 ul. An RNase detection assay was performed using the method of the invention with Substrate oligonucleotide SEQ ID NO:30. Reactions were examined for fluorescence emission by visual inspection using an ultraviolet (UV) light source for excitation. Results were scored as +++, ++, +, or − based on relative signal intensity. As a control, RNase A (1 ug) was added to negative reactions and the Assay was re-scored. ND=not done.

Row | Molecule | Assay Results (RNase activity in reagent, relative signal intensity)
1 | B1 | −
2 | B2 | +++
3 | B3 | +++
4 | B4 | +++
5 | B5 | −
